# Data published in article PMC5176175, “Bg10: A Novel Metagenomics Alcohol-Tolerant and Glucose-Stimulated GH1 ß-Glucosidase Suitable for Lactose-Free Milk Preparation” (PLoS ONE, 2016).
# B1: Bg10 (uncultured bacterium) (protein)
# chain: MTAVRSESAELSQSPASYRFPPGFVWGAATAAYQIEGAAAEDGRTPSIWDTFSHTPGRVLNGDTGDIAADHYHRFRDDVALMSDLNLGAYRFSVSWSRVQPTGRGPAVQRGLDFYRQLVDELLEKGITPVATLYHWDLPQDLEDVGGWTVRDTPERFAEYTEIVAAALGDRVPYWTTLNEPWCSAYLGYGSGVHAPGRTDPEAALKAVHHLNLAHGRGIGVLRSLLPSTARTSITLNLHQIRPLSTSPADLDAARRIDAVGNRVWLGPILDGAYPQDVLADTGHLVDWDRLVRDGDLEEISRPIDLLGINYYTPTLVSDGRAHADGPAMPRNDGHGASAHSPWPGSEHVAFHLAPGETTAMRWAVDASGLYDLLMRIHREHPGLPMMVTENGAAYDDYISPEGAINDPDRIAYLRGHLSAVHRALADGADVRGYFLWSLLDNFEWAYGYSKRFGAVYVDFGTQRRIPKQSAHWYAAVARDNVLPDGPEEDGTS
# notes: ORF10 in pET28a (EcoRI/HindIII), E. coli BL21(DE3), Ni-NTA and size exclusion
# Substrate: O=[N+]([O-])c1ccc(O[C@@H]2O[C@H](CO)[C@@H](O)[C@H](O)[C@H]2O)cc1
# Assay: purified protein
# Assay type: biochemical, uncultured bacterium
# Conditions: pH 7.0, 37 °C, sodium phosphate buffer, 0.1-10 mM substrate
protein,measurement,value
B1,Km,490 ± 120 µM
same,kcat,2.918 ± 0.115 s⁻¹
